Columns and labels:
Saccharomyces cerevisiae [1] = assay: protein stability index of tFT-peptide fusion in wild type (PSI (0-1 scale)); higher = more stable (slower turnover); details: genetic background: wild type
Saccharomyces cerevisiae [2] = assay: protein stability index of tFT-peptide fusion in deletion strain of DOA10 (PSI (0-1 scale)); higher = more stable (slower turnover)
Experimental: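 MPS profiling in S. cerevisiae of two library types built from selected 12-aa C-degron peptides (IN1, IN2, LN1, LN3, VN2, R1-R5, W1-W3, Atg1 and Rpa12 C-termini): saturation mutagenesis libraries and C-terminal +1 capping libraries (13 aa). Each peptide is fused to the C-terminus of a sfGFP-mCherry timer, after a GGGS linker. Cells are FACS-sorted into 8 mCherry/sfGFP bins and sequenced. PSI runs from 0 (unstable) to 1 (stable), measured once in wild type and in the das1Δ or doa10Δ background.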
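For protein stability index of tFT-peptide fusion in deletion strain of DOA10 in this document: PSI per variant is the weighted mean of its sequencing read distribution over the sorted stability bins, counting only variants with over 10 reads summed across bins.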
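For protein stability index of tFT-peptide fusion in wild type in this document: PSI derived as read-weighted mean over the 8 sorting bins, only variants exceeding 10 total reads kept, mCherry placed adjacent to the peptide and sfGFP distal.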

Sequence	protein stability index (Saccharomyces cerevisiae [1])	protein stability index (Saccharomyces cerevisiae [2])
VVTRLDAIYFRI	0.302	0.671
YLVSLPILLFFR	0.0822	0.538

Reference: the supplement of paper PMC10724198
